In patent publication US5882644A, “Monoclonal antibodies specific for the platelet derived growth factor β receptor and methods of use thereof” (Protein Design Labs, Inc., priority 1996, dated 1999):

How the values were obtained:
[1] = tested on: PDGF-R β deletion fusion proteins; experiment: ELISA epitope mapping with PDGF-R β deletion fusion proteins; type: binding, human
Description: To localize the binding sites of the M4TS antibodies on the PDGF-R, a series of PDGF-R β deletion mutants, each consisting of one or more adjacent domains of the extracellular portion of the receptor, was constructed by standard methods including PCR. The deletion constructs were each cloned into an expression plasmid (FIG. 13A) where they were fused to the constant region of the human lambda-1 immunoglobulin light chain, to facilitate detection in ELISA. The constructs were as follows (see FIG. 13B):
These PDGF-R β deletion fusion proteins were transiently expressed, by transfecting 10 μg of the respective expression plasmids into approximately 10^7 S194 mouse myeloma cells (ATCC TIB 19) using the DEAE-dextran method in accordance with the method described by Queen et al. (1984) Mol. Cell. Biol. 4:1042. After the transfected cells had died (4-5 days) and been removed by centrifugation, the culture supernatants containing the PDGF-R β deletion proteins were used in ELISA assays, 100 μl/well. First, the relative levels of the various PDGF-R β deletion proteins were measured in an ELISA where the plate was coated with goat anti-human lambda antibody (Tago) and the proteins detected with HRP-conjugated goat anti-human lambda antibody. […] To determine the ability of the antibodies to bind to each deletion protein, an ELISA was performed in which goat anti-human lambda antibody was used to coat the plate, followed by the cell supernatant and then 0.1 μg of the appropriate antibody, and then bound antibody detected with HRP-conjugated goat-anti-mouse Ig or goat-anti-human Ig antibody as appropriate (Tago). As a positive control, purified soluble PDGF-R β (Example 1) was coated directly on certain wells of the plate (denoted D1-5 in FIG. 14).

[2] = tested on: intima of left common carotid artery after balloon injury; experiment: Rat carotid balloon injury model, intimal thickening; type: in vivo; conditions: 21 days after injury
Description: To perform the vascular injury, under sterile conditions and after general anesthesia the left common carotid arteries of S-D rats were exposed. Anesthesia was induced with ketamine and xilaxine by IP injection. Additional anesthesia was given at half a dose every forty-five minutes. Through a midline neck incision the left common, external and internal carotid arteries were exposed. A 2F Fogarty balloon catheter was introduced in the left external carotid artery. The balloon was inflated sufficiently to generate slight resistance and withdrawn 3 times to consistently produce endothelial denudation of the entire length of the left common carotid artery (LCCA), thus simulating vascular injury after balloon angioplasty in human patients. Upon removal of the catheter, the left external carotid artery was ligated with 3.0 silk. The skin was closed with surgical wound clips. […]
For measurement of intimal thickening, the left common carotid arteries were sectioned every 3 mm, from the proximal to the distal end. […] Cross-sectional areas for lumen, intima and media of the artery were determined as a mean of the 3 segments with the greatest intimal thickness. […] Differences between placebo or control groups and treated groups were analyzed for statistical significance by analysis of variance and a two-tailed, unpaired Student's t test […]

binding to deletion proteins containing only first through third domains ([1]; 0.1 μg antibody): do not bind | binding to protein D1-4 ([1]; 0.1 μg antibody): do bind to protein D1-4
B1: muM4TS.11: murine monoclonal antibody to PDGF-R β, variable regions SEQ ID NOS:10 and 12; epitope in fourth extracellular domain (antibody, V domains shown)
VL: METETLLLWVLLLWVPGSTGDIVLTQSPPSLAVSLGQRATISCRASESVDSYGNSFMHWYQQKPGQPPKLLIYRASNLESGIPARFSGGGSRTDFTLTINPVEADDVATYYCQQSNEDPPTFGGGTKLEIK
VH: MERHWIFLFLFSVTAGVHSQVQLQQSGAEVAKPGASVKMSCKASGYTFTNCWMHWVKQRPGQGLEWIGYINPTTGYSEYNQNFKDKATLTADKSSNTAYIQLSSLTSEDSAVYYCTSNYGHYDWFANWGQGTLVT
binding to protein D5 (fifth domain only) ([1]; separate experiment): none of muM4TS.11 and HuM4TS.11, muM4TS.22 and HuM4TS.22 bound to it | less thickening of the artery intima than placebo or control groups ([2]; high dose: 4 mg bolus, then 2 mg IV every 24 hr for 4 days): approximately 60% | less thickening of the artery intima than placebo or control groups ([2]; low dose: 10% of the high-dose regimen): approximately 40%
